B1: MBP-PIF6_(1-100)-His6 [A. thaliana] / PhyB_(1-651)-Avitag-His6 [modified: phycocyanobilin chromophore; biotin on the Avitag; phycocyanobilin chromophore; biotin on the Avitag] [A. thaliana] (parent)
chain 1: MMFLPTDYCCRLSDQEYMELVFENGQILAKGQRSNVSLHNQRTKSIMDLYEAEYNEDFMKSIIHGGGGAITNLGDTQVVPQSHVAAAHETNMLESNKHVD
chain 2: MVSGVGGSGGGRGGGRGGEEEPSSSHTPNNRRGGEQAQSSGTKSLRPRSNTESMSKAIQQYTVDARLHAVFEQSGESGKSFDYSQSLKTTTYGSSVPEQQITAYLSRIQRGGYIQPFGCMIAVDESSFRIIGYSENAREMLGIMPQSVPTLEKPEILAMGTDVRSLFTSSSSILLERAFVAREITLLNPVWIHSKNTGKPFYAILHRIDVGVVIDLEPARTEDPALSIAGAVQSQKLAVRAISQLQALPGGDIKLLCDTVVESVRDLTGYDRVMVYKFHEDEHGEVVAESKRDDLEPYIGLHYPATDIPQASRFLFKQNRVRMIVDCNATPVLVVQDDRLTQSMCLVGSTLRAPHGCHSQYMANMGSIASLAMAVIINGNEDDGSNVASGRSSMRLWGLVVCHHTSSRCIPFPLRYACEFLMQAFGLQLNMELQLALQMSEKRVLRTQTLLCDMLLRDSPAGIVTQSPSIMDLVKCDGAAFLYHGKYYPLGVAPSEVQIKDVVEWLLANHADSTGLSTDSLGDAGYPGAAALGDAVCGMAVAYITKRDFLFWFRSHTAKEIKWGGAKHHPEDKDDGQRMHPRSSFQAFLEVVKSRSQPWETAEMDAIHSLQLILRDSFKESEAAMNSKVVDGVVQPCRDMAGEQGIDELGA

Variants of: B1
Assay: size exclusion chromatography (gel filtration, Superdex 200 10/300 GL, A671 nm)
Details: with PhyB_(1-651)-Avitag-His6 [modified: phycocyanobilin chromophore, PhyB illuminated with 660 nm light, PhyB:MBP-PIF 2:1 molar ratio, 60 min at room temperature, parent: 56, read off a plot

Row | Variant | response (% PhyB-PIF complex)
1 | chain 1 C9S C10S | 64
2 | chain 1 S37A | 57
3 | chain 1 N35Q | 52
4 | chain 1 C9S C10S N35Q | 54

Source: publication PMC6488296
